# Where two headings read alike, the source gives them in different places. Bridge positions count the residues as written; N and C are the ends. Ends that are not written are not given here.
# B1: CRGDGAWC phage (peptide)
# peptide: CRGDGAWC
# notes: on fuse 5 phage, fused to pIII
# B2: CRGDAAHC phage (peptide)
# peptide: CRGDAAHC
# notes: as for B1
# B3: CRGDAAWC phage (peptide)
# peptide: CRGDAAWC
# notes: as for B1
# B4: CRGDGAFC phage (peptide)
# peptide: CRGDGAFC
# notes: as for B1
# B5: CRGDGFLC phage (peptide)
# peptide: CRGDGFLC
# notes: as for B1
# B6: CRGDGLDC phage (peptide)
# peptide: CRGDGLDC
# notes: as for B1
# B7: CRGDGLIC phage (peptide)
# peptide: CRGDGLIC
# notes: as for B1
# B8: CRGDGLLC phage (peptide)
# peptide: CRGDGLLC
# notes: as for B1
# B9: CRGDGLMC phage (peptide)
# peptide: CRGDGLMC
# notes: as for B1
# B10: CRGDGLWC phage (peptide)
# peptide: CRGDGLWC
# notes: as for B1
# B11: CRGDGMLC phage (peptide)
# peptide: CRGDGMLC
# notes: as for B1
# B12: CRGDGMWC phage (peptide)
# peptide: CRGDGMWC
# notes: as for B1
# B13: CRGDGWIC phage (peptide)
# peptide: CRGDGWIC
# notes: as for B1
# B14: CRGDGWLC phage (peptide)
# peptide: CRGDGWLC
# notes: as for B1
# B15: CRGDGWMC phage (peptide)
# peptide: CRGDGWMC
# notes: as for B1
# B16: CRGDGWWC phage (peptide)
# peptide: CRGDGWWC
# notes: as for B1
# B17: CRGDNAWC phage (peptide)
# peptide: CRGDNAWC
# notes: as for B1
# B18: CRGDNVWC phage (peptide)
# peptide: CRGDNVWC
# notes: as for B1
# B19: CRGDRAWC phage (peptide)
# peptide: CRGDRAWC
# notes: as for B1
# B20: CRGDGQHC phage (peptide)
# peptide: CRGDGQHC
# notes: as for B1
# B21: CRGDGLMCGL phage (peptide)
# peptide: CRGDGLMCGL
# notes: as for B1
# B22: CGQRGDGFCL phage (peptide)
# peptide: CGQRGDGFCL
# notes: as for B1
# B23: CPVRRGDGWC phage (peptide)
# peptide: CPVRRGDGWC
# notes: as for B1
# B24: CLRGDGLALC phage (peptide)
# peptide: CLRGDGLALC
# notes: as for B1
# B25: CRGDGYCVFF phage (peptide)
# peptide: CRGDGYCVFF
# notes: as for B1
# B26: CWRGDHVMPC phage (peptide)
# peptide: CWRGDHVMPC
# notes: as for B1
# B27: CDWRGDNQFC phage (peptide)
# peptide: CDWRGDNQFC
# notes: as for B1
# B28: CRGDCLPTPR phage (peptide)
# peptide: CRGDCLPTPR
# notes: as for B1
# B29: CYVNGRAWAC phage (peptide)
# peptide: CYVNGRAWAC
# notes: as for B1
# B30: CTNVNGRSAC phage (peptide)
# peptide: CTNVNGRSAC
# notes: as for B1
# B31: CQGMHGTPAC phage (peptide)
# peptide: CQGMHGTPAC
# notes: as for B1
# B32: CGQGMHRLAC phage (peptide)
# peptide: CGQGMHRLAC
# notes: as for B1
# B33: CQGIDGTPAC phage (peptide)
# peptide: CQGIDGTPAC
# notes: as for B1
# B34: CMWLSVNYSC phage (peptide)
# peptide: CMWLSVNYSC
# notes: as for B1
# B35: CREQPASRSC phage (peptide)
# peptide: CREQPASRSC
# notes: as for B1
# B36: CKWRSARDLC phage (peptide)
# peptide: CKWRSARDLC
# notes: as for B1
# B37: CVDCILRYLC phage (peptide)
# peptide: CVDCILRYLC
# notes: as for B1
# B38: CGADSEEGPC phage (peptide)
# peptide: CGADSEEGPC
# notes: as for B1
# B39: CDSVLRVFC phage (peptide)
# peptide: CDSVLRVFC
# notes: as for B1
# B40: CIRRGDTFGC phage (peptide)
# peptide: CIRRGDTFGC
# notes: as for B1
# B41: CQGRGDTFYC phage (peptide)
# peptide: CQGRGDTFYC
# notes: as for B1
# B42: CPRRGDTFSC phage (peptide)
# peptide: CPRRGDTFSC
# notes: as for B1
# B43: CAHRGDTPQC phage (peptide)
# peptide: CAHRGDTPQC
# notes: as for B1
# B44: CVSRGDTPKC phage (peptide)
# peptide: CVSRGDTPKC
# notes: as for B1
# B45: CVTRGDSFSC phage (peptide)
# peptide: CVTRGDSFSC
# notes: as for B1
# B46: CQVRGDQFAC phage (peptide)
# peptide: CQVRGDQFAC
# notes: as for B1
# B47: CTQRGDNFFC phage (peptide)
# peptide: CTQRGDNFFC
# notes: as for B1
# B48: CAPRGDHFAC phage (peptide)
# peptide: CAPRGDHFAC
# notes: as for B1
# B49: CQSRGDDFSC phage (peptide)
# peptide: CQSRGDDFSC
# notes: as for B1
# B50: CGRRGDVPRC phage (peptide)
# peptide: CGRRGDVPRC
# notes: as for B1
# B51: CRGDTPGFLC phage (peptide)
# peptide: CRGDTPGFLC
# notes: as for B1
# B52: CRGDLPRAWC phage (peptide)
# peptide: CRGDLPRAWC
# notes: as for B1
# B53: CRGDVPAVGC phage (peptide)
# peptide: CRGDVPAVGC
# notes: as for B1
# B54: CYRGDADFWC phage (peptide)
# peptide: CYRGDADFWC
# notes: as for B1
# B55: CSQKRGDTWC phage (peptide)
# peptide: CSQKRGDTWC
# notes: as for B1
# B56: CPDKRGDTYC phage (peptide)
# peptide: CPDKRGDTYC
# notes: as for B1
# B57: CGPRERFLSC phage (peptide)
# peptide: CGPRERFLSC
# notes: as for B1
# B58: CIRQRIYPWC phage (peptide)
# peptide: CIRQRIYPWC
# notes: as for B1
# B59: CGQRSSARAS phage (peptide)
# peptide: CGQRSSARAS
# notes: as for B1
# B60: CGSPLKSIKC phage (peptide)
# peptide: CGSPLKSIKC
# notes: as for B1
# B61: CIEIQHGKAC phage (peptide)
# peptide: CIEIQHGKAC
# notes: as for B1
# B62: CRKQVMACTA phage (peptide)
# peptide: CRKQVMACTA
# notes: as for B1
# B63: CEAKFQLHWV phage (peptide)
# peptide: CEAKFQLHWV
# notes: as for B1
# B64: CVGKELHKRV phage (peptide)
# peptide: CVGKELHKRV
# notes: as for B1
# B65: CTRKRAVGAA phage (peptide)
# peptide: CTRKRAVGAA
# notes: as for B1
# B66: CRRETAWAC phage (peptide)
# peptide: CRRETAWAC
# notes: as for B1
# B67: CRSETYWKC phage (peptide)
# peptide: CRSETYWKC
# notes: as for B1
# B68: ECRRETAWAC phage (peptide)
# peptide: ECRRETAWAC
# notes: as for B1
# B69: CRGDGWC phage (peptide)
# peptide: CRGDGWC
# modifications: disulfide 1-7 (inferred)
# notes: on fuse 5 phage, fused to pIII; also called phage expressing the peptide A*CRGDGWC*G; not shown: The pIII coat protein of the fuse 5 phage vector and its junction residues
# B70: CRGDGFC phage (peptide)
# peptide: CRGDGFC
# modifications: disulfide 1-7 (inferred)
# notes: on fuse 5 phage, fused to pIII; not shown: The pIII coat protein of the fuse 5 phage vector and its junction residues
# Key:
# Test in all cases: phage panning on coated integrin
# [1] = molecular target: T1, α5β1 integrin isolated from human placental extract (human, UniProt P08648 42-1049; P05556 21-798)
# T1 construct: coated on plastic wells or captured by anti-α5 antibody; also called fibronectin receptor
# Experimental: (§1) In the first panning, the integrins were coated at 5 µg per well, and the library pool was incubated for 4 hours at 25° C. in TBS buffer containing 1% bovine serum albumin and 1 mM MnCl_2 (α_5β_1, α_vβ_3) 1 mM MgCl_2 ($\alphaIIb\beta_3$) or 1 mM CaCl_2 (α_vβ_5).
# [2] = molecular target: αvβ5 integrin isolated from human placental extract (human, UniProt P06756 31-1048; P18084 24-799)
# Experimental: as §1
# [3] = molecular target: T1, α5β1 integrin isolated from human …; remark: listed apart in the source
# αvβ5 integrin isolated from human placental extract, sequence (P06756 31-1048, chain 1 of 2): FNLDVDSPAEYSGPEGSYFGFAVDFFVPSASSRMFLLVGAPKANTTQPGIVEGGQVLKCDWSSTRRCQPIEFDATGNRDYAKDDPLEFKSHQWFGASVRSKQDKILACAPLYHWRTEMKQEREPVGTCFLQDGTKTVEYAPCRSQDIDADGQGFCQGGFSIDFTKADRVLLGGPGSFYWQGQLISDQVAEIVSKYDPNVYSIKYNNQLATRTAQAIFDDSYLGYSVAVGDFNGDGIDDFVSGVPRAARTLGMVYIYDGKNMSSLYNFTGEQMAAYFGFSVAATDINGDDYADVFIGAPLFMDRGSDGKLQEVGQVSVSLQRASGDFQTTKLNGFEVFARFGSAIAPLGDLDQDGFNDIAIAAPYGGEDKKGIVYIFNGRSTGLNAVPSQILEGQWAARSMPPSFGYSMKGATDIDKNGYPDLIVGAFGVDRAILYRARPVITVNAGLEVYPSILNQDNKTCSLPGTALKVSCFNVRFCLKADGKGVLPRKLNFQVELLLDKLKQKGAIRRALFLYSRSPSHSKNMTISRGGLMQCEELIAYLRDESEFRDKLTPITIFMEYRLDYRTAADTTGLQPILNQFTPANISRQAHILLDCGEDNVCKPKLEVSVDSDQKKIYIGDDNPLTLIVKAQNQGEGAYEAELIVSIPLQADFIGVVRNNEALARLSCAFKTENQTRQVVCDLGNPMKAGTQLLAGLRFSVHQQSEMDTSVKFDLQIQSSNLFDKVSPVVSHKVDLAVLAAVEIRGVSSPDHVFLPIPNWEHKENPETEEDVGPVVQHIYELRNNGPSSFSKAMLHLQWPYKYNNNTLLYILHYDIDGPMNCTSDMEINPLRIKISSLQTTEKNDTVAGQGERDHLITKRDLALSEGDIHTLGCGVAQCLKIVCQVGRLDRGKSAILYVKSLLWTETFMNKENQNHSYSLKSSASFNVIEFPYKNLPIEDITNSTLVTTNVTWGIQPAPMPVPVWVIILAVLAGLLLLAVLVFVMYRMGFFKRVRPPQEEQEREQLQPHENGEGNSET
# αvβ5 integrin isolated from human placental extract, sequence (P18084 24-799, chain 2 of 2): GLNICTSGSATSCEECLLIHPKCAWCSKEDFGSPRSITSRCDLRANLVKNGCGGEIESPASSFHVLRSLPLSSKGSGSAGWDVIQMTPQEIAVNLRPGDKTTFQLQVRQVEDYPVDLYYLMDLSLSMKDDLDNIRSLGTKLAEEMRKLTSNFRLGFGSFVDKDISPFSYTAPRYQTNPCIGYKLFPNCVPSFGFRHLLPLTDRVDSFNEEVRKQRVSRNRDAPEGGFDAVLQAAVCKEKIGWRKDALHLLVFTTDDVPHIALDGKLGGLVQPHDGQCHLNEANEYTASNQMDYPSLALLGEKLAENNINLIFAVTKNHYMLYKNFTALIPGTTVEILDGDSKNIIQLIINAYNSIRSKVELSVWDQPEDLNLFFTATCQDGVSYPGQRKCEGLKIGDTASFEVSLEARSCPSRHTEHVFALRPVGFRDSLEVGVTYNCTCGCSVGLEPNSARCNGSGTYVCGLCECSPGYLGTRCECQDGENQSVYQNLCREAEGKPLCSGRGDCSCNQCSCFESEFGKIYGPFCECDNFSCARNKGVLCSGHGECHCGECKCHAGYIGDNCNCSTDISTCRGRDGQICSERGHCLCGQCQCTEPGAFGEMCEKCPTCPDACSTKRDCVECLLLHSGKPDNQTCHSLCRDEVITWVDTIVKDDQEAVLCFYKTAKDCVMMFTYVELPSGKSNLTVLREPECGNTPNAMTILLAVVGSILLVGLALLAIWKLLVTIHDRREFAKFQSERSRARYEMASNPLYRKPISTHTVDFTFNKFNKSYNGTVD
# T1 sequence (P08648 42-1049, chain 1 of 2): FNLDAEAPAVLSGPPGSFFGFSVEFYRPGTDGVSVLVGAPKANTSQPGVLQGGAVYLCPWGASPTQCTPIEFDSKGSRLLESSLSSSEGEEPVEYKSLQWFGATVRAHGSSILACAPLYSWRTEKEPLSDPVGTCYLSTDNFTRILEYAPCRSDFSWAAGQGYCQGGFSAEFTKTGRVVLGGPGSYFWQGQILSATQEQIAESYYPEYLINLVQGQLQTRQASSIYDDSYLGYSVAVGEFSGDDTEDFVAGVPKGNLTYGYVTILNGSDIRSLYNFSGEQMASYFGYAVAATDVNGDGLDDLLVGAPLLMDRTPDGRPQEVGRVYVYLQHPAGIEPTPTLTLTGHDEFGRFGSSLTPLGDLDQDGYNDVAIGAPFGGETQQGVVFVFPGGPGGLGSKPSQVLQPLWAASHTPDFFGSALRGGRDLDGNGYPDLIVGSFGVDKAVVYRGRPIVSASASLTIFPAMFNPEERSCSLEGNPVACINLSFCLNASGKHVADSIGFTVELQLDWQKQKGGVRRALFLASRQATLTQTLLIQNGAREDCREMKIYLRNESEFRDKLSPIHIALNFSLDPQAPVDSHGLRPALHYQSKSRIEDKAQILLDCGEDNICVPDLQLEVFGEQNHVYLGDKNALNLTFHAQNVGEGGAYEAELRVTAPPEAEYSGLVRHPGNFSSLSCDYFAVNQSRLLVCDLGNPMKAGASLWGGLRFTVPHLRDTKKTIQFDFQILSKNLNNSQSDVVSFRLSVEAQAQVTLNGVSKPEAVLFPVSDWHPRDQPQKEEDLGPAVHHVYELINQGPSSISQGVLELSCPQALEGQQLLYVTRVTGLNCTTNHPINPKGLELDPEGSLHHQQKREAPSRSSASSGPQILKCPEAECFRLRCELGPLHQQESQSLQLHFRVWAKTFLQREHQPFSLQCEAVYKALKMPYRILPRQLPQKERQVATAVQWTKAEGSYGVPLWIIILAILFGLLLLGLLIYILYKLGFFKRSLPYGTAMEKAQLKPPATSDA
# T1 sequence (P05556 21-798, chain 2 of 2): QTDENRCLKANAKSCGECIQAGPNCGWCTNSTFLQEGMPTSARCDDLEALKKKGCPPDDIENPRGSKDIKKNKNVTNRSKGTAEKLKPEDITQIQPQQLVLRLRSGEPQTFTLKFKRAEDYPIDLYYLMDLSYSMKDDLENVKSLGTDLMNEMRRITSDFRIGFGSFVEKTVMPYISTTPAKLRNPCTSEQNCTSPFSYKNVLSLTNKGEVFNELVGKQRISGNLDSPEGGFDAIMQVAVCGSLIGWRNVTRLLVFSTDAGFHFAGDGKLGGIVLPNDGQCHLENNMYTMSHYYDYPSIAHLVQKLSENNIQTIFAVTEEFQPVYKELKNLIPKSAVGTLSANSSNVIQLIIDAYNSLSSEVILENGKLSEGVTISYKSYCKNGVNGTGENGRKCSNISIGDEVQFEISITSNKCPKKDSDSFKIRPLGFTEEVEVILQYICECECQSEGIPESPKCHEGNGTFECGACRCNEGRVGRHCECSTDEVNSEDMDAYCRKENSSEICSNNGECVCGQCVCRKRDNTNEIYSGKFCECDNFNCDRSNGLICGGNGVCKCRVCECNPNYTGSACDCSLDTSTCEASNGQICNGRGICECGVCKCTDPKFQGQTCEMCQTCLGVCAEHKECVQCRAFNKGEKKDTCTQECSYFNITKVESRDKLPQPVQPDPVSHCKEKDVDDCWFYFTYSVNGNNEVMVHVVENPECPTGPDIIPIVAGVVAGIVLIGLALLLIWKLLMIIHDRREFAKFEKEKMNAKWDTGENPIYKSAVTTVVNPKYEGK
Binder,binding result [1],binding result [2],also measured
B1,binds,–,–
B2,binds,–,–
B3,binds,–,–
B4,binds,–,–
B5,binds,–,–
B6,binds,–,–
B7,binds,–,–
B8,binds,–,–
B9,binds,–,–
B10,binds,–,–
B11,binds,–,–
B12,binds,–,–
B13,binds,–,–
B14,binds,–,–
B15,binds,–,–
B16,binds,–,–
B17,binds,–,–
B18,binds,–,–
B19,binds,–,–
B20,binds,–,–
B21,binds,–,–
B22,binds,–,–
B23,binds,–,–
B24,binds,–,–

Binder,binding result [1],binding result [2],also measured
B25,binds,–,–
B26,binds,–,–
B27,binds,–,–
B28,binds,–,–
B29,binds,–,–
B30,binds,–,–
B31,binds,–,–
B32,binds,–,–
B33,binds,–,–
B34,binds,–,–
B35,binds,–,–
B36,binds,–,–
B37,binds,–,–
B38,binds,–,–
B39,–,binds,–
B40,–,binds,–
B41,–,binds,–
B42,–,binds,–
B43,–,binds,–
B44,–,binds,–
B45,–,binds,–
B46,–,binds,–
B47,–,binds,–
B48,–,binds,–

Binder,binding result [1],binding result [2],also measured
B49,–,binds,–
B50,–,binds,–
B51,–,binds,–
B52,–,binds,–
B53,–,binds,–
B54,–,binds,–
B55,–,binds,–
B56,–,binds,–
B57,–,binds,–
B58,–,binds,–
B59,–,binds,–
B60,–,binds,–
B61,–,binds,–
B62,–,binds,–
B63,–,binds,–
B64,–,binds,–
B65,–,binds,–
B66,–,–,binding result [3]: binds
B67,–,–,binding result [3]: binds
B68,–,–,binding result [3]: binds
B69,binds,–,–
B70,binds,–,–

# From US7067619 (LA JOLLA CANCER RESEARCH FOUNDATION, dated 2006)
